Data from patent US10058586B2, “Use of human small leucine zipper protein in adipocyte differentiation procedure” (Korea University Research and Business Foundation, priority 2013, dated 2018).

Assays:
Type in all cases: cell-based
[1] = system: multipotential mesenchymal progenitor cells; assay: Oil red O staining, differentiation of multipotential mesenchymal progenitor cells into adipocytes; details: C3H10T1/2 and 3T3-L1 cells
[2] = system: primary preadipocytes and mouse embryonic fibroblasts (MEFs); assay: Adipocyte differentiation of primary preadipocytes and MEFs isolated from sLZIP TG mice; details: cells isolated from sLZIP TG mice vs wild type mice
From the text: In order to generate human sLZIP transgenic (TG) mice, sLZIP genes were cloned into a pCMV-flag expression vector. The sLZIP TG mice were generated by Macrogen, Inc (Seoul, Korea). Transgenic founders were mated with wild type C57BL/6 mice to produce F1 heterozygotes. F1-F4 generations were genetically screened for transgenes at an age of 2 weeks old. The following two primers were used to amplify genomic DNA in order to identify wild type and TG mice: [NT] and 5'-[NT]3.' Adipocyte differentiation is a well-regulated procedure. PPARγ2 is a major regulator of adipogenesis, is highly expressed during adipocyte differentiation, and regulates expression of genes involved in adipogenesis. An effect of sLZIP on adipogenesis in vivo was examined. For this purpose, in order to produce human sLZIP transgenic mice, sLZIP genes were cloned in a pCMV-flag expression vector. The sLZIP TG mice were produced in Macrogen, Inc (Seoul, Korea) (FIG. 8A). Preadipocytes were isolated from epididymal adipose tissues of sLZIP TG mice. […] A promoter activity was measured according to luciferase analysis (FIG. 8B). […] Total RNA was extracted from the cells, and an mRNA expression level of mouse LZIPs was measured using RT-PCR analysis. […] Total RNA was isolated from the cells, and an mRNA expression level of mouse LZIPs was measured using RT-PCR (FIG. 9C) and real-time PCR (FIG. 9D).

PPARγ2 = target: T1, PPARγ2 (Mus musculus, UniProt P37238); assay: FABP4-Luc stable C3H10T1/2 cells infected with sLZIP-expressing adenovirus and differentiated into adipocytes; details: sLZIP adenovirus, differentiated into adipocytes for 4 days
T1 construct: endogenous in cells
T1 sequence (P37238 1-505): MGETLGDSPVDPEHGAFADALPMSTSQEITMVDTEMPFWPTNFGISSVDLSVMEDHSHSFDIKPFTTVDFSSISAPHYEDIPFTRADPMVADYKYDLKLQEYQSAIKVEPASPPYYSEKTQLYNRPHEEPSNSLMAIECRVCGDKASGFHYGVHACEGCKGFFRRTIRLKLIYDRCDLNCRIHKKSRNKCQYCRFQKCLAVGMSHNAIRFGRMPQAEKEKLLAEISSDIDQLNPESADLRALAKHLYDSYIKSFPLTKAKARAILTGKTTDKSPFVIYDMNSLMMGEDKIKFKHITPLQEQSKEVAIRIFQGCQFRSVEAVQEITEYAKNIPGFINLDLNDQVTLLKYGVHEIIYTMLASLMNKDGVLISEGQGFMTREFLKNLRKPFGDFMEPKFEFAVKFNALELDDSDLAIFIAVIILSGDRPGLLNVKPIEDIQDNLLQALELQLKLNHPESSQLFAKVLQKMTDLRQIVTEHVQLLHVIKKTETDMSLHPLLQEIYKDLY

B1: sLZIP: human small leucine-zipper protein, isoform of LZIP, 354 amino acids, no transmembrane domain; GenBank FJ263669, SEQ ID NO: 1 (protein, listed as Homo sapiens)
chain: MELELDAGDQDLLAFLLEESGDLGTAPDEAVRAPLDWALPLSEVPSDWEVDDLLCSLLSPPASLNILSSSNPCLVHHDHTYSLPRETVSMDLESESCRKEGTQMTPQHMEELAEQEIARLVLTDEEKSLLEKEGLILPETLPLTKTEEQILKRVRRKIRNKRSAQESRRKKKVYVGGLESRVLKYTAQNMELQNKVQLLEEQNLSLLDQLRKLQAMVIEISNKTSSSSMYSSDTRGSLPAEHGVLSRQLRALPSEDPYQLELPALQSEVPKDSTHQWLDGSDCVLQAPGNTSCLLHYMPQAPSAEPPLEWPFPDLFSEPLCRGPILPLQANLTRKGGWLPTGSPSVILQDRYSG
Question: Which “adipocyte differentiation (oil red O staining)” value [1] does the source give for B1 here?
Answer: Its value is “inhibited adipocyte differentiation”.

Question: What about the adipocyte differentiation [2] of the same molecule?
Answer: The adipocyte differentiation was “inhibited more than in wild type mice”.

Question: And the “transcriptional activity of PPARγ2 (relative luciferase activity)” value (PPARγ2)?
Answer: Its value is “the transcriptional activity of PPARγ2 decreased in adipocytes”.
